Results reported in PMC1179735.

Target: T1, indolicidin (Bos taurus (bovine; synthetic peptide), UniProt P33046)
T1 chain: ILPWKWPWWPWRR
Assay: SPR

Q: For CATAATATTC (ssDNA) [ss[AT]], which Kd is on record?
A: 2090 µM

Q: Which Kd does the source give for CGCGGCGGCT (ssDNA) [ss[GC] (ss[CG] in Table 2)] here?
A: 1530 µM

Q: For CAGAGAGAGT (ssDNA) [ss[AG]], which Kd is on record?
A: 2440 µM

Q: CGTGTGTGTC (ssDNA) [ss[GT]] was tested. Which Kd did it give?
A: 115 µM
